Target: Csk (UniProt P41240)
Assay: anti-Flag co-IP, anti-Myc blot
Conditions: reference: Myc-Cbp wild type; sites Y317

binding against the reference: weaker
Substance: Cbp (Csk binding protein, Cbp/PAG1) (from UniProt Q9NWQ8) Myc-Cbp Y317F

From article PMC6531875
